Experiments:
[1] = biological target: T1, cyno SIRPγ ECD recombinant protein (cyno); assay: ELISA, cyno SIRPγ ECD
T1 construct: extracellular domain

[2] = biological target: T2, full length human SIRPα v1 stably expressed on CHOK1 or 293F cells (human, UniProt P78324 31-504); assay: FACS, CHOK1-hSIRPα v1 cells
T2 construct: whole, on cells; also called CHOK1-human SIRPα v1; CHOK1-hSIRPα v1
Source text: (§1) All the humanized antibodies as tested were confirmed to retain the similar activity as the parental antibody of 025c to bind to SIRP family members.

[3] = biological target: T3, human SIRPγ stably expressed on 293F cells (human, UniProt Q9P1W8 29-387); assay: FACS, 293F-human SIRPγ cells
T3 construct: whole, on cells

[4] = biological target: Human SIRPα v1 (antigen of the Octet and Biacore affinity measurements) (human, UniProt P78324 31-370, limits assumed); assay: BLI (Octet), 1:1 binding model
Protocol: The purified chimeric antibodies were characterized for binding affinity against human SIRPα v1, human SIRPα v2 using Bio-Layer Interferometry technology (Octet system). The association and dissociation curves were fit with 1:1 binding model, and the Ka/Kd/KD values for each antibody were calculated.

[5] = biological target: T4, C57BL/6 mouse SIRPα ECD recombinant protein (6×His tagged) (C57BL/6 mouse, UniProt P97797 32-373); assay: ELISA, recombinant C57BL/6 mouse SIRPα ECD
T4 construct: extracellular domain; Bought from Biointron; not shown: 6×His tag
T4 sequence (looked up): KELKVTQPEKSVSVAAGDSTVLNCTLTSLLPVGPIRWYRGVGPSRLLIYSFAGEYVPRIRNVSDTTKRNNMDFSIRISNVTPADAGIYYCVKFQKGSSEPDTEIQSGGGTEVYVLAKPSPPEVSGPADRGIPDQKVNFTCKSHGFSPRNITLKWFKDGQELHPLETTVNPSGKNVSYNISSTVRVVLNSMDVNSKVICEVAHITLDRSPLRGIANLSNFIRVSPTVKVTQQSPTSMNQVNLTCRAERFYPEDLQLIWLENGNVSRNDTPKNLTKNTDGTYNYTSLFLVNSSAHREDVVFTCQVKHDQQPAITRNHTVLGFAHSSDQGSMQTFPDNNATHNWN
Source text: Species cross reactivity of purified chimeric antibodies was detected by ELISA assay using recombinant protein of C57BL/6 mouse SIRPα ECD (FIG. 5A) and FACS assay using CHOK 1 cells stably expressing cyno SIRPα (FIGS. 5B and 5C). All antibodies as tested bind to cyno SIRPα at different levels but have no species cross reactivity against C57BL/6 mouse SIRPα.

[6] = biological target: T5, human SIRPβ stably expressed on CHOK1 cells (human, UniProt O00241 30-398); assay: FACS, CHOK1 cells stably expressing human SIRPβ
T5 construct: whole, on cells; also called CHOK1-human SIRPB; CHOK1-hSIRPβ
Source text: as §1

[7] = biological target: T2, full length human SIRPα v1 stably …; assay: competitive FACS, mFc-CD47 ECD on CHOK1-human SIRPα v1 cells
Procedure, shortened: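 Antibody co-incubated with mFc-tagged human CD47 ECD on CHOK1 cells stably expressing human SIRPα v1 or v2; dye-labeled anti-mouse Fc secondary added, 37 °C for 1 h. Fluorescence intensity read; blocking ratio derived from inhibition of CD47 ECD binding to SIRPα-expressing cells.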

[8] = biological target: T6, mFc tagged human SIRPα v1 ECD recombinant protein (human, UniProt P78324 31-373); assay: competitive ELISA binning, mFc-SIRPα v1 ECD; competitor 025c
T6 construct: extracellular domain; Bought from Biointron; not shown: mouse IgG Fc (mFc) tag
Protocol: (§2) Competitive ELISA assay was used for epitope binning of purified chimeric antibodies. Briefly excessive competitor antibody and mFc tagged human SIRPα v1 ECD recombinant protein were co-incubated with ELISA microplate coated antibody. After washing, HRP labeled anti-mouse Fc 2nd antibody (Sigma) was added and incubated at 37° C. for 1 hour. Then, 100 μl/well of TMB solution (Biotechnology) was added. After incubation for 15 minutes at room temperature, the reaction was stopped by the addition of 50 μl of 1N HCl. OD 450 nm was read. Competition ratio was calculated. The antibodies that can compete each other for binding to SIRPα may have related binding epitopes.

[9] = biological target: T6, mFc tagged human SIRPα v1 ECD …; assay: competitive ELISA binning, mFc-SIRPα v1 ECD; competitor hu1H9G4
Protocol: as §2

[10] = biological target: T7, human SIRPα v2 ECD recombinant protein (tag not given) (human); assay: competitive ELISA, coated human SIRPα v2 ECD, blocked ligand mFc tagged human CD47 ECD
T7 construct: extracellular domain; also called ELISA microplate coated human SIRPα v2 ECD
Protocol: Competitive ELISA assay was used to determine whether the purified chimeric antibodies can block CD47 and SIRPα interaction. Briefly, antibody and mFc tagged human CD47 ECD recombinant protein were co-incubated with ELISA microplate coated human SIRPα v1 ECD (FIGS. 6A and 6B) or human SIRPα v2 ECD (FIGS. 7A and 7B) recombinant protein. After washing, HRP labeled anti-mouse Fc 2nd antibody (Sigma) was added and incubated at 37° C. for 1 hour. Then, 100 μl/well of TMB solution (Biotechnology) was added. After incubation for 15 minutes at room temperature, the reaction was stopped by the addition of 50 μl of 1N HCl. OD 450 nm was read. Blocking ratio was determined by blockade of human CD47 ECD recombinant protein binding to ELISA microplate coated human SIRPα ECD recombinant protein. Other than 005, all antibodies as tested can block interaction between human CD47 and different human SIRPα variants.

T2 sequence (P78324 31-504): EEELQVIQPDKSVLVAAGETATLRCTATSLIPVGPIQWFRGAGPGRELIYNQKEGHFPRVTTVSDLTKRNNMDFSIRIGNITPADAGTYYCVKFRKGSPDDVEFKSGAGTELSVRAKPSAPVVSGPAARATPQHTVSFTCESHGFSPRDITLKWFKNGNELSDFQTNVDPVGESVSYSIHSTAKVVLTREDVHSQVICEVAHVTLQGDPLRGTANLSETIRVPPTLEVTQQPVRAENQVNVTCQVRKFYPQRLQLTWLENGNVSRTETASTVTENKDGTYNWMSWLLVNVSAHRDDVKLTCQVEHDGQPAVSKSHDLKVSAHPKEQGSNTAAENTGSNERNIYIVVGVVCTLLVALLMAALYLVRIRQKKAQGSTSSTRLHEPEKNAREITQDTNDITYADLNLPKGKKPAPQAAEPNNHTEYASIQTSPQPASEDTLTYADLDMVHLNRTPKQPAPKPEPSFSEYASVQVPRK
Sequence of Human SIRPα v1 (antigen of the Octet and Biacore affinity measurements) (P78324 31-370 limits assumed): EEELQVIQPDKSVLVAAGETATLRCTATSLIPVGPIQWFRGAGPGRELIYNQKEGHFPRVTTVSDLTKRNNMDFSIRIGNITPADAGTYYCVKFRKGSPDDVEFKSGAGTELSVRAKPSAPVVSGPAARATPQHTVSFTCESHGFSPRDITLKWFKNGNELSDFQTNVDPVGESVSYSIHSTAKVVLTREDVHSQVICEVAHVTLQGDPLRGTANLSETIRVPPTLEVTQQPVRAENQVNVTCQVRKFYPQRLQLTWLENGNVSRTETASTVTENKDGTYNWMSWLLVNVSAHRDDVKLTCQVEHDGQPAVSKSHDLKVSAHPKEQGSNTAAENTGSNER
T6 sequence (P78324 31-373): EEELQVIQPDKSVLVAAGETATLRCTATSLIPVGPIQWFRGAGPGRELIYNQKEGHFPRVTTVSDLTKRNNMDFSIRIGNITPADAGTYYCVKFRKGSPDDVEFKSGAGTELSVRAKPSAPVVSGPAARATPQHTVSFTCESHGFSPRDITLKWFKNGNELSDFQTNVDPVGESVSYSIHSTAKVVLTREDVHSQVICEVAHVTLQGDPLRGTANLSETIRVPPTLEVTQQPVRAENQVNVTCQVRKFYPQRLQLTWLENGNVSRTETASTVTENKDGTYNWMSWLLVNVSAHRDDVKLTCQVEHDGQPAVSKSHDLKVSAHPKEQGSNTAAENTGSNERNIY
T3 sequence (Q9P1W8 29-387): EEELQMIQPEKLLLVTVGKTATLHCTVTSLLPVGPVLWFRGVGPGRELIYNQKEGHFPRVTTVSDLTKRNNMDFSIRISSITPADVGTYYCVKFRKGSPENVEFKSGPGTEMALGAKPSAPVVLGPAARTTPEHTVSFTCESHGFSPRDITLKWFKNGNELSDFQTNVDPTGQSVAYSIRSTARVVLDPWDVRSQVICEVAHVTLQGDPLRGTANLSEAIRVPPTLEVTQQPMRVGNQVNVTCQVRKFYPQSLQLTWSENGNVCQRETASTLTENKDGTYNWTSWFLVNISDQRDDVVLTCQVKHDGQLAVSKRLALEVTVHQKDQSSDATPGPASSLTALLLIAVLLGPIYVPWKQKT
T5 sequence (O00241 30-398): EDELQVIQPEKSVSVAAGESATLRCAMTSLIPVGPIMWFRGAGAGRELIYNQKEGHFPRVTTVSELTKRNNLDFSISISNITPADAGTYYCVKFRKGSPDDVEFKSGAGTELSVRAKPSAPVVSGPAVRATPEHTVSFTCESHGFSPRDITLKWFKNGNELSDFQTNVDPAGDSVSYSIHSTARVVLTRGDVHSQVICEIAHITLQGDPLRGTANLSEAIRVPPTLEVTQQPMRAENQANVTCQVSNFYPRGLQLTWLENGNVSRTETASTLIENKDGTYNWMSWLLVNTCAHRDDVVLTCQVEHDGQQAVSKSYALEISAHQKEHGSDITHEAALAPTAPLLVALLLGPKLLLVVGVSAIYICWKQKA

B1: 025c (antibody, V domains shown)
VH: EVQLQQSGAELVKPGASVKLSCTASGFNIKDYYMHWVKQRTEQGLEWIGRIDPEDGETKYAPKFQGKATITADTSSNTAYLQLSSLTSEDTAVYYCDRGLAYWGQGTLVTVSA
VL: QIVLTQSPAIMSASPGEKVTLTCSASSSVSSSYLYWYQQKPGSSPKLWIYSTSNLASGVPARFSGSGSGTSYSLTISSMEAEDAASYFCHQWSSYPYTFGGGTKLEIK
notes: also called chimeric antibody 025c; parental antibody of 025c
EC50 [1]: 0.36 nM | TOP OD450 [1]: 3.07 OD450 | EC50 [2]: 1.22 nM | TOP MFI [2]: 64700 MFI | EC50 [3]: 0.11 nM | TOP MFI [3]: 3220 MFI | Kd [4]: 2.46 nM | koff [4]: 0.00156 s⁻¹ | kon [4]: 636000 M⁻¹ s⁻¹ | binding result [5]: no binding | EC50 (read off the curve) [6]: ~0.7 nM | IC50 [7]: 0.4 nM | TOP blocking (%) [7]: 97.6% | % Competition [8]: 93.5% | % Competition [9]: 15.3% | IC50 (read off the curve) [10]: ~2 nM

Source: patent publication US20250270315A1 (ELPISCIENCE SUZHOU BIOPHARMA, published 2025)
